Assay results from patent US20180044374A1.
Values joined by “and” are separate entries in the source; they are usually repeats but may differ in a detail not shown here. Equal entries are not always repeated.

How the values were obtained:
[1] = target: human polyclonal IgG (Gammanorm) (human); assay: dynamic binding capacity; matrix A62a, ligand 6.6 mg/ml
[2] = target: human polyclonal IgG (Gammanorm) (human); assay: dynamic binding capacity; matrix A62a, ligand 6.4 mg/ml
[3] = target: human polyclonal IgG (Gammanorm) (human); assay: dynamic binding capacity; matrix A63a, ligand 14.0 mg/ml
[4] = target: human polyclonal IgG (Gammanorm) (human); assay: dynamic binding capacity; matrix A39, ligand 10.5 mg/ml
[5] = target: human polyclonal IgG (Gammanorm) (human); assay: dynamic binding capacity; matrix A62b, ligand […]; conditions: ligand content 5.2 mg/ml
[6] = target: human polyclonal IgG (Gammanorm) (human); assay: dynamic binding capacity; matrix A62a, ligand 9.7 mg/ml
[7] = target: human polyclonal IgG (Gammanorm) (human); assay: dynamic binding capacity; matrix A27, ligand […]
[8] = target: human polyclonal IgG (Gammanorm) (human); assay: dynamic binding capacity; matrix H40, ligand […]
[9] = target: human polyclonal IgG (Gammanorm) (human); assay: dynamic binding capacity; matrix A40, ligand 13.2 mg/ml
[10] = target: human polyclonal IgG (Gammanorm) (human); assay: dynamic binding capacity; matrix C3, ligand 9.0 mg/ml
[11] = target: human polyclonal IgG (Gammanorm) (human); assay: dynamic binding capacity; matrix A29, ligand 7.3 mg/ml
[12] = target: human polyclonal IgG (Gammanorm) (human); assay: dynamic binding capacity; matrix A43, ligand 6.99 mg/ml
[13] = target: human polyclonal IgG (Gammanorm) (human); assay: dynamic binding capacity; matrix C4, ligand […]
[14] = target: human polyclonal IgG (Gammanorm) (human); assay: dynamic binding capacity; matrix A39, ligand 7.0 mg/ml
[15] = target: human polyclonal IgG (Gammanorm) (human); assay: dynamic binding capacity; matrix A65a, ligand 13.1 mg/ml
[16] = target: human polyclonal IgG (Gammanorm) (human); assay: dynamic binding capacity; matrix A33, ligand 9.4 mg/ml
[17] = target: human polyclonal IgG (Gammanorm) (human); assay: dynamic binding capacity; matrix C1, ligand 10.8 mg/ml
[18] = target: human polyclonal IgG (Gammanorm) (human); assay: dynamic binding capacity; matrix A18, ligand 13.4 mg/ml
[19] = target: human polyclonal IgG (Gammanorm) (human); assay: dynamic binding capacity; matrix A63a, ligand 6.1 mg/ml
[20] = target: human polyclonal IgG (Gammanorm) (human); assay: dynamic binding capacity; matrix A42, ligand 6.72 mg/ml
[21] = target: human polyclonal IgG (Gammanorm) (human); assay: dynamic binding capacity; matrix A41, ligand 13.0 mg/ml
[22] = target: human polyclonal IgG (Gammanorm) (human); assay: dynamic binding capacity; ligand 12 mg/ml, before 1 M NaOH
[23] = target: human polyclonal IgG (Gammanorm) (human); assay: dynamic binding capacity; matrix C4, ligand 10.1 mg/ml
[24] = target: human polyclonal IgG (Gammanorm) (human); assay: dynamic binding capacity; matrix A33, ligand 7.33 mg/ml
[25] = target: human polyclonal IgG (Gammanorm) (human); assay: dynamic binding capacity; matrix A42, ligand […]
[26] = target: human polyclonal IgG (Gammanorm) (human); assay: dynamic binding capacity; matrix A40, ligand 11.0 mg/ml
[27] = target: human polyclonal IgG (Gammanorm) (human); assay: dynamic binding capacity; matrix C3, ligand […]; conditions: ligand content 5.9 mg/ml
[28] = target: human polyclonal IgG (Gammanorm) (human); assay: dynamic binding capacity; matrix A20, ligand […]
[29] = target: human polyclonal IgG (Gammanorm) (human); assay: dynamic binding capacity; matrix A29, ligand 11 mg/ml
[30] = target: human polyclonal IgG (Gammanorm) (human); assay: dynamic binding capacity; matrix A40, ligand 11.03 mg/ml
[31] = target: human polyclonal IgG (Gammanorm) (human); assay: dynamic binding capacity; matrix A40, ligand 6.1 mg/ml
[32] = target: human polyclonal IgG (Gammanorm) (human); assay: dynamic binding capacity; matrix A20, ligand 10.6 mg/ml

## Zvar(Q9A, N11E, Q40V, A42K, N43A, L44I)4 (designed binder)
[1]
  Qb10% 2.4 min: 41 mg/mL
  Qb10% 6 min: 46 mg/mL
[2]
  Qb10% 2.4 min: 43 mg/mL
  Qb10% 6 min: 45 mg/mL
[3]
  Qb10% 2.4 min: 48 mg/mL
  Qb10% 6 min: 56 mg/mL
[4]
  Qb10% 2.4 min: 44 mg/mL
  Qb10% 6 min: 65 mg/mL
[5]
  Qb10% 2.4 min: 40 mg/mL
[6]
  Qb10% 2.4 min: 48 mg/mL
  Qb10% 6 min: 60 mg/mL
[7]
  Qb10% 2.4 min: 24.8 mg/mL
  Qb10% 6 min: 55.6 mg/mL
[8]
  Qb10% 2.4 min: 47 mg/mL
  Qb10% 6 min: 52 mg/mL
[9]
  Qb10% 2.4 min: 57 mg/mL
  Qb10% 6 min: 71 mg/mL
[10]
  Qb10% 2.4 min: 49 mg/mL
  Qb10% 6 min: 62 mg/mL
[11]
  Qb10% 2.4 min: 36.3 mg/mL
  Qb10% 6 min: 51.8 mg/mL
[12]
  Qb10% 2.4 min: 33.4 mg/mL
  Qb10% 6 min: 49.8 mg/mL
[13]
  Qb10% 2.4 min: 59 mg/mL
  Qb10% 6 min: 67 mg/mL
[14]
  Qb10% 2.4 min: 42 mg/mL
  Qb10% 6 min: 55 mg/mL
[15]
  Qb10% 2.4 min: 56 mg/mL
  Qb10% 6 min: 64 mg/mL
[16]
  Qb10% 2.4 min: 51 mg/mL
  Qb10% 6 min: 58 mg/mL
[17]
  Qb10% 2.4 min: 43 mg/mL
  Qb10% 6 min: 60 mg/mL
[18]
  Qb10% 6 min: 63 mg/mL
[19]
  Qb10% 2.4 min: 39 mg/mL
  Qb10% 6 min: 44 mg/mL
[20]
  Qb10% 2.4 min: 33.6 mg/mL
  Qb10% 6 min: 50 mg/mL
[21]
  Qb10% 2.4 min: 35 mg/mL
  Qb10% 6 min: 62.2 mg/mL
[22]
  Qb10%, 6 min, before incubation: 78 mg/mL
[23]
  Qb10% 2.4 min: 55 mg/mL
  Qb10% 6 min: 63 mg/mL
[24]
  Qb10% 2.4 min: 48.7 mg/mL
  Qb10% 6 min: 55.8 mg/mL
[25]
  Qb10% 2.4 min: 32.2 mg/mL
  Qb10% 6 min: 57.8 mg/mL
[26]
  Qb10% 2.4 min: 55 mg/mL
  Qb10% 6 min: 74 mg/mL
[27]
  Qb10% 2.4 min: 44 mg/mL
  Qb10% 6 min: 52 mg/mL
[28]
  Qb10% 2.4 min: 49 mg/mL
  Qb10% 6 min: 67 mg/mL
[29]
  Qb10% 2.4 min: 34.9 mg/mL
  Qb10% 6 min: 64.7 mg/mL
[30]
  Qb10% 2.4 min: 55 mg/mL
  Qb10% 6 min: 73.8 mg/mL
[31]
  Qb10% 2.4 min: 49 mg/mL
  Qb10% 6 min: 59 mg/mL
[32]
  Qb10% 2.4 min: 50.7 mg/mL and 51 mg/mL
  Qb10% 6 min: 70.1 mg/mL and 70 mg/mL
